# Measured values as given in publication PMC6821365.
# T1: yedK S84A (Escherichia coli (gene from BL21 …, UniProt P76318 2-222, S84A))
# T1 sequence: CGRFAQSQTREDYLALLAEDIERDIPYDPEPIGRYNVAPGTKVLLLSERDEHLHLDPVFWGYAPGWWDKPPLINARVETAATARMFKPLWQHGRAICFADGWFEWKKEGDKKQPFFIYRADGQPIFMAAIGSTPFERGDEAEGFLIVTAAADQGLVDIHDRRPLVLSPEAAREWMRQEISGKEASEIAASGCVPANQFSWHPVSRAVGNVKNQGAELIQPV
# T2: yedK R77A (Escherichia coli (gene from BL21 …, UniProt P76318 2-222, R77A))
# T2 sequence: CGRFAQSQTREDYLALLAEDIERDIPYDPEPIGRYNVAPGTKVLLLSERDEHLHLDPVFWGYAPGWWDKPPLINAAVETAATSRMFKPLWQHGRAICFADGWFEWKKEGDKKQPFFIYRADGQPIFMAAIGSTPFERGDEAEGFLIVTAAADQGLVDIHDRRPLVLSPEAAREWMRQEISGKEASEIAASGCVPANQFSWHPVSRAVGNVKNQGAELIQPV
# Columns and labels:
# yedK S84A = molecular target: T1, yedK S84A; test: ITC
# yedK R77A = molecular target: T2, yedK R77A; test: ITC
binder,measurement,setting,value
CGGTCGATTC (ssDNA) [ssDNA],Kd,yedK S84A,10.8 µM
same,binding result,yedK R77A,no binding
